Results on 1 molecule are retold here after patent US20070059756A1, “Immunointeractive molecules and their uses in treating subjects suffering from Hev b 5 allergies” (priority 1999, published 2007).

The subject of data set [1] is latex specific T cell lines. As to the kind of experiment: Oligoclonal T cell proliferation assay (3H-thymidine incorporation). In kind it is cell-based, human. As to conditions: for Oligoclonal proliferative response: antigen 10 μg/ml, 4 day cultures. On the technique in general: Dividing cells build labelled thymidine or BrdU into new DNA.
The next data set deals with PBMC. As to the kind of experiment: Primary culture PBMC proliferation (polyclonal response). As to conditions: primary cultures of PBMC. Format: cell-based, human. The method, then: Latex specific T cell lines were isolated using our well established methods for the generation of allergen specific oligoclonal T cell populations (O'Hehir et al., 1987). An initial primary culture was performed for each patient to determine the optimal concentration of LAL for stimulation. For this, peripheral blood mononuclear cells (PBMC) separated from heparinised venous blood by density centrifugation (2×10^5/well) were stimulated with LAL over a concentration range 0.03 to 100 μg/ml, with control cultures of PBMC alone or stimulated with tetanus toxoid. All cultures were maintained in complete medium (RPMI-1640, Gibco Life Technologies supplemented with 2 mmol/L L-glutamine, 100 IU/ml penicillin-streptomycin and 5% screened, heat inactivated human AB serum [Sigma]). […] Therefore, to generate T cell lines, PBMC (2.5×10^6/well) were stimulated for 1 week with LAL at a concentration of 20 μg/ml in 24-well tissue culture plates (Costar, USA). After 7 days, lymphoblasts (1×10^6/well) were restimulated for one week with LAL at a concentration of 20 μg/ml in the presence of an equal number of irradiated (3000 rad) autologous PBMC as antigen presenting cells (APC). On days 2 and 4, cultures were supplemented with Lymphocult-T (5% v/v; Biotest Folex, Germany) and fresh medium. […]

In data set [2] the test system is house dust mite specific three-week T cell line. Format: cell-based. The method, then: Mitogenicity of latex antigens was excluded by testing the ability of LAL, rHev b 5/mBP and Hev b 5 peptides to stimulate a house dust mite specific three-week T cell line. No reactivity to latex allergens was observed (data not shown). Toxicity was assessed by coculturing the same antigens with house dust mite specific T cells in the presence of Lymphocult-T at 10 IU/ml.

The subject of a further data set is serum IgE. As to the kind of experiment: Dot immunoblot of patient serum IgE reactivity. In kind it is binding, human. As to conditions: sera of latex allergic patients 1-6. The method, then: Patient serum IgE reactivity to latex allergens was analysed by dot immunoblots. LAL (25 μg), rHev b 5/MBP (7 μg) and MBP (4.5 μg) were applied side by side on a nitrocellulose membrane (Schleichner and Schuell, Germany) in a 5 μl volume and allowed to soak in. The amount of MBP was estimated to be equivalent to that in the rHev b 5/MBP aliquot. The membrane was then blocked, incubated in patient sera and IgE binding detected according to our established protocols (Suphioglu et al., 1993). Briefly, the blots were blocked in 10% w/v skim milk powder in PBS and washed once in PBS containing 0.2% v/v Tween 20 and twice in PBS alone. Blots were then incubated in patients' sera (diluted 1:4 in PBS/0.5% BSA) overnight at room temperature with shaking before washing as described above. Finally, IgE antibody binding was detected by incubation in rabbit anti-human IgE (Dako, Denmark) followed by horse radish peroxidase-labelled anti-rabbit antibodies (Promega, USA), washing in between, and developing in the substrate 4-chloro-1-napthol (Sigma) after the final wash.

The nature of data set [3]: Immune response of mice immunised with rHev b 5/MBP (serum ELISA). Format: in vivo, BALB/c mice. As to conditions: 20 μg/injection IP; serum ELISA against rHev b 5/MBP, MBP and NAL. The method, then:
Monoclonal antibody production was carried out based on the method of Köhler and Milstein (Köhler et al., 1975) according to established protocols (Goding, 1996). Six to 8 week old female BALB/c mice were immunised intraperitoneally (IP) with 20 μg/injection of rHev b 5/MBP diluted in 200 μl of phosphate buffered saline (PBS). The first injection was given with an equal volume (200 μl) of Complete Freund's Adjuvant (Sigma, USA), and the second with 200 μl of Incomplete Freund's Adjuvant (Sigma, USA). The subsequent 4 immunisations were given in phosphate buffered saline (PBS) alone. The initial 2 immunisations were given at a 2 weekly interval; the remainder were given at monthly intervals, with 100 μl of whole blood being taken before the first immunisation and at 5 days following each immunisation (except for the first) to monitor the immune response. The blood was then centrifuged, the serum removed, and aliquotted at −20° C. for later analysis using enzyme linked immunosorbent assay (ELISA) as below. The final booster immunisation of 20 μg of rHev b 5/MBP in 200 μl PBS was given IP 3 days before the mouse was humanly killed and the spleen aseptically removed, macerated and then fused with 10^7 murine myeloma cells (X-63.Ag8 cell line, generous gift of Professor Jim Goding). […] Colour development was then observed and the plate read at […]. […]
A general note: ELISA stands for enzyme-linked immunosorbent assay.

B1: rHev b 5/MBP: recombinant Hev b 5 as maltose binding protein (MBP) fusion protein (protein)
chain: ASVEVESAATALPKNETPEVTKAEETKTEEPAAPPASEQETADATPEKEEPTAAPAEPEAPAPETEKAEEVEKIEKTEEPAPEADQTTPEEKPAEPEPVAEEEPKHETKETETEAPAAPAEGEKPAEEEKPITEAAETATTEVPVEKTEE
modifications: left off: large carriers; small tags and cut ends
Consider B1, for which the Oligoclonal proliferative response in data set [1] (P1 T cell line) stood at 9.0 counts per minute × 10^−3; in data set [1] (P2 T cell line), 5.7 counts per minute × 10^−3. Further, in data set [1] (three-week latex specific T cell lines), the “oligoclonal proliferative response (in words)” value was “significantly higher than those of MBP alone”. The “polyclonal PBMC response (in words)” value with PBMC is given as “considerably less than those to LAL”. Moreover, in data set [2], the “mitogenicity: stimulation of house dust mite specific T cell line” value was “No reactivity”. Moreover, the “serum IgE reactivity” value in the data set on serum IgE was “patients 1, 2, 3, 4 and 5 showed IgE reactivity”. Further, in data set [3], the “immune response of immunised mice” value is “strong polyclonal immune response”.
